Experimental data from paper PMC10438466.

Legend:
[1] = HA IP, anti-phospho-Ser/Thr WB; details: glycan lost; control: FOXA1WT, untreated
[2] = cycloheximide chase, WB, MCF-7 FOXA1 KO; details: glycan lost; control: FOXA1WT
HA IP, anti-ubiquitin WB = details: control: untreated HA-FOXA1WT cells
[3] = WB of HA-FOXA1 protein level; details: control: untreated HA-FOXA1WT cells

Protein	other: serine/threonine phosphorylation [1]	degradation_or_half_life [2]	other: ubiquitination (HA IP, anti-ubiquitin WB; glycan lost)	expression_or_secretion ([3]; glycan lost)	other: ubiquitination (HA IP, anti-ubiquitin WB; glycan gained)	expression_or_secretion ([3]; glycan gained)
FOXA1: FOXA13A (protein) parent chain: MLGTVKMEGHETSDWNSYYADTQEAYSSVPVSNMNSGLGSMNSMNTYMTMNTMTTSGNMTPASFNMSYANPGLGAGLSPGAVAGMPGGSAGAMNSMTAAGVTAMGTALSPSGMGAMGAQQAASMNGLGPYAAAMNPCMSPMAYAPSNLGRSRAGGGGDAKTFKRSYPHAKPPYSYISLITMAIQQAPSKMLTLSEIYQWIMDLFPYYRQNQQRWQNSIRHSLSFNDCFVKVARSPDKPGKGSYWTLHPDSGNMFENGCYLRRQKRFKCEKQPGAGGGGGSGSGGSGAKGGPESRKDPSGASNPSADSPLHRGVHGKTGQLEGAPAPGPAASPQTLDHSGATATGGASELKTPASSTAPPISSGPGALASVPASHPAHGLAPHESQLHLKGDPHYSFNHPFSINNLMSSSEQQHKLDFKAYEQALQYSPYGSTLPASLPLGSASVTTRSPIEPSALEPAYYQGVYSRPVLNTS	decreases	increases				
FOXA1: OSMI-4 (protein) parent chain: MLGTVKMEGHETSDWNSYYADTQEAYSSVPVSNMNSGLGSMNSMNTYMTMNTMTTSGNMTPASFNMSYANPGLGAGLSPGAVAGMPGGSAGAMNSMTAAGVTAMGTALSPSGMGAMGAQQAASMNGLGPYAAAMNPCMSPMAYAPSNLGRSRAGGGGDAKTFKRSYPHAKPPYSYISLITMAIQQAPSKMLTLSEIYQWIMDLFPYYRQNQQRWQNSIRHSLSFNDCFVKVARSPDKPGKGSYWTLHPDSGNMFENGCYLRRQKRFKCEKQPGAGGGGGSGSGGSGAKGGPESRKDPSGASNPSADSPLHRGVHGKTGQLEGAPAPGPAASPQTLDHSGATATGGASELKTPASSTAPPISSGPGALASVPASHPAHGLAPHESQLHLKGDPHYSFNHPFSINNLMSSSEQQHKLDFKAYEQALQYSPYGSTLPASLPLGSASVTTRSPIEPSALEPAYYQGVYSRPVLNTS	decreases		decreases	increases		
FOXA1: TMG (protein) parent chain: MLGTVKMEGHETSDWNSYYADTQEAYSSVPVSNMNSGLGSMNSMNTYMTMNTMTTSGNMTPASFNMSYANPGLGAGLSPGAVAGMPGGSAGAMNSMTAAGVTAMGTALSPSGMGAMGAQQAASMNGLGPYAAAMNPCMSPMAYAPSNLGRSRAGGGGDAKTFKRSYPHAKPPYSYISLITMAIQQAPSKMLTLSEIYQWIMDLFPYYRQNQQRWQNSIRHSLSFNDCFVKVARSPDKPGKGSYWTLHPDSGNMFENGCYLRRQKRFKCEKQPGAGGGGGSGSGGSGAKGGPESRKDPSGASNPSADSPLHRGVHGKTGQLEGAPAPGPAASPQTLDHSGATATGGASELKTPASSTAPPISSGPGALASVPASHPAHGLAPHESQLHLKGDPHYSFNHPFSINNLMSSSEQQHKLDFKAYEQALQYSPYGSTLPASLPLGSASVTTRSPIEPSALEPAYYQGVYSRPVLNTS					increases	decreases
